Source: US20110243934A1

Target: EphA3 antigen (UniProt P29320)
Assay: ELISA

Chain of UniProt P29320 (P29320 21-541 limits assumed): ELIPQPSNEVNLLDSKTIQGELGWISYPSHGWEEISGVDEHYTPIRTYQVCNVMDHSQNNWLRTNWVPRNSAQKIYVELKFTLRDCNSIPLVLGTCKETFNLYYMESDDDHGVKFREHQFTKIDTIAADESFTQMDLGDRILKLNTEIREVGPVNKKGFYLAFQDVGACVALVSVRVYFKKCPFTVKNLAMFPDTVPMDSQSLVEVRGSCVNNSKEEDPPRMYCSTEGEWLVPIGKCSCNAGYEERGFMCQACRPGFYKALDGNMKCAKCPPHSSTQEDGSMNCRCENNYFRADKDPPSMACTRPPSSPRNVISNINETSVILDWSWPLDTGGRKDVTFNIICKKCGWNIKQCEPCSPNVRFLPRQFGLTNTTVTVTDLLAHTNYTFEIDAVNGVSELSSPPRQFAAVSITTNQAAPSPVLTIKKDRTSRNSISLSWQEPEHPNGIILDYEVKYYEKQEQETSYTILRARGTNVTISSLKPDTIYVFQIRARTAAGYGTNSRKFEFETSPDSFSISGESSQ

- AFFINITY: 2.5 nM
Substance: monoclonal antibody IIIA4
